Measured values reported in doi:10.1101/2023.08.10.552882.

Target: human 26S proteasome (human) (UniProt O00487)
Assay: single-molecule TIRF microscopy

Sequence of UniProt O00487 (O00487 whole entry, looked up): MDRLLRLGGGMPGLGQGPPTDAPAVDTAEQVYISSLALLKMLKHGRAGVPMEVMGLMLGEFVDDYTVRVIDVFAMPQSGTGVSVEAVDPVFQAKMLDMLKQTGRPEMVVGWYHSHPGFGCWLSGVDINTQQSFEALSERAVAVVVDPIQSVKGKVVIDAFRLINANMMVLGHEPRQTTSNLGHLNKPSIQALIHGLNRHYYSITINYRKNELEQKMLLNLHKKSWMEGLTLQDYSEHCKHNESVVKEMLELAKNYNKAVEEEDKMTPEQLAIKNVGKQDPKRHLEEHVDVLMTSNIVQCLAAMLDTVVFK

| Substance | half-life of the proteasome-substrate complex [s] | puncta density relative to pK48-polyUb-GFP [fold] |
| --- | --- | --- |
| K48-polyUb-GFP (from UniProt P0CG48) | 2.82 | 5 |
| pK48-polyUb-GFP (from UniProt P0CG48) | 0.73 |  |
